Measured values as given in patent US20220298218A1 (ANTAG THERAPEUTICS, published 2022).
*1 amine or outer side, *2 acyl side, *3 side chain or, on linkers, in order; H or OH if unused. Where no end group is shown, it is not given here. Side-chain parts run from the residue outwards. The star is where a group is joined. C18 diacid = O=C(O)CCCCCCCCCCCCCCCCC(=O)*; C16 diacid = O=C(O)CCCCCCCCCCCCCCC(=O)*; γGlu = O=C(O)[C@H](CCC(=O)[*:2])N[*:1]; Stearoyl = CCCCCCCCCCCCCCCCCC(=O)*; AEEA = NCCOCCOCC(=O)O

T1: human GIP receptor (human, UniProt P48546 22-466)
T1 sequence (looked up): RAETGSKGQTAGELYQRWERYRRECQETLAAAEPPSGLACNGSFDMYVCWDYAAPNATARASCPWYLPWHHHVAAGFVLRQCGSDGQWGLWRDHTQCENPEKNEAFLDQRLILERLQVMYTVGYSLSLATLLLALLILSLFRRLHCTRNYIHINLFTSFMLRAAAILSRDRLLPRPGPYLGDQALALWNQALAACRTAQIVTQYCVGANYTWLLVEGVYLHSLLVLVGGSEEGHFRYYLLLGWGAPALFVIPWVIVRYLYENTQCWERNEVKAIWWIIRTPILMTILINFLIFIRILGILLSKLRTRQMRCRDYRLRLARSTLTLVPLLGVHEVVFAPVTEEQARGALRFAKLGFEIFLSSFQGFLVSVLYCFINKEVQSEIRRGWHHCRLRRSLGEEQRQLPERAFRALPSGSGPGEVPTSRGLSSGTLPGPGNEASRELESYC

B1: AT548 (peptide)
peptide: EGTFISDYSIAMDKIHQK([AEEA-AEEA-γGlu-C18 diacid])DFVNWLLAQKGKKNDW-OH
modifications: N-terminus assumed
SMILES: CC[C@H](C)[C@H](NC(=O)[C@H](CO)NC(=O)[C@H](Cc1ccc(O)cc1)NC(=O)[C@H](CC(=O)O)NC(=O)[C@H](CO)NC(=O)[C@@H](NC(=O)[C@H](Cc1ccccc1)NC(=O)[C@@H](NC(=O)CNC(=O)[C@@H](N)CCC(=O)O)[C@@H](C)O)[C@@H](C)CC)C(=O)N[C@@H](C)C(=O)N[C@@H](CCSC)C(=O)N[C@@H](CC(=O)O)C(=O)N[C@@H](CCCCN)C(=O)N[C@H](C(=O)N[C@@H](Cc1c[nH]cn1)C(=O)N[C@@H](CCC(N)=O)C(=O)N[C@@H](CCCCNC(=O)COCCOCCNC(=O)COCCOCCNC(=O)CC[C@H](NC(=O)CCCCCCCCCCCCCCCCC(=O)O)C(=O)O)C(=O)N[C@@H](CC(=O)O)C(=O)N[C@@H](Cc1ccccc1)C(=O)N[C@H](C(=O)N[C@@H](CC(N)=O)C(=O)N[C@@H](Cc1c[nH]c2ccccc12)C(=O)N[C@@H](CC(C)C)C(=O)N[C@@H](CC(C)C)C(=O)N[C@@H](C)C(=O)N[C@@H](CCC(N)=O)C(=O)N[C@@H](CCCCN)C(=O)NCC(=O)N[C@@H](CCCCN)C(=O)N[C@@H](CCCCN)C(=O)N[C@@H](CC(N)=O)C(=O)N[C@@H](CC(=O)O)C(=O)N[C@@H](Cc1c[nH]c2ccccc12)C(=O)O)C(C)C)[C@@H](C)CC
B2: AT561 (peptide)
peptide: TFISDYK([γGlu-γGlu-C18])IAMDKIHQQDFVNWLLAQKGKKNDW-OH
B3: AT560 (peptide)
peptide: TFISDYK([AEEA-AEEA-γGlu-C18])IAMDKIHQQDFVNWLLAQKGKKNDW-OH
B4: AT547 (peptide)
peptide: EGTFISDYSIAMDKIKQQDFVNWLLAQKGKKNDW
HELM: PEPTIDE1{E.G.T.F.I.S.D.Y.S.I.A.M.D.K.I.K.Q.Q.D.F.V.N.W.L.L.A.Q.K.G.K.K.N.D.W}|PEPTIDE2{[CCCCCCCCCCCCCCCCCC(=O)[*:2]].[gGlu].[gGlu]}$PEPTIDE1,PEPTIDE2,16:R3-3:R2$$$V2.0; N-terminus assumed
SMILES: CCCCCCCCCCCCCCCCCC(=O)N[C@@H](CCC(=O)N[C@@H](CCC(=O)NCCCC[C@H](NC(=O)[C@@H](NC(=O)[C@H](CCCCN)NC(=O)[C@H](CC(=O)O)NC(=O)[C@H](CCSC)NC(=O)[C@H](C)NC(=O)[C@@H](NC(=O)[C@H](CO)NC(=O)[C@H](Cc1ccc(O)cc1)NC(=O)[C@H](CC(=O)O)NC(=O)[C@H](CO)NC(=O)[C@@H](NC(=O)[C@H](Cc1ccccc1)NC(=O)[C@@H](NC(=O)CNC(=O)[C@@H](N)CCC(=O)O)[C@@H](C)O)[C@@H](C)CC)[C@@H](C)CC)[C@@H](C)CC)C(=O)N[C@@H](CCC(N)=O)C(=O)N[C@@H](CCC(N)=O)C(=O)N[C@@H](CC(=O)O)C(=O)N[C@@H](Cc1ccccc1)C(=O)N[C@H](C(=O)N[C@@H](CC(N)=O)C(=O)N[C@@H](Cc1c[nH]c2ccccc12)C(=O)N[C@@H](CC(C)C)C(=O)N[C@@H](CC(C)C)C(=O)N[C@@H](C)C(=O)N[C@@H](CCC(N)=O)C(=O)N[C@@H](CCCCN)C(=O)NCC(=O)N[C@@H](CCCCN)C(=O)N[C@@H](CCCCN)C(=O)N[C@@H](CC(N)=O)C(=O)N[C@@H](CC(=O)O)C(=O)N[C@@H](Cc1c[nH]c2ccccc12)C(=O)O)C(C)C)C(=O)O)C(=O)O
B5: AT631 (peptide)
peptide: EGTFISDYSIAMDKIK(C16 diacid)QQDFVNWLLAQKPSSGAPPPS-OH
modifications: N-terminus assumed
SMILES: CC[C@H](C)[C@H](NC(=O)[C@H](CO)NC(=O)[C@H](Cc1ccc(O)cc1)NC(=O)[C@H](CC(=O)O)NC(=O)[C@H](CO)NC(=O)[C@@H](NC(=O)[C@H](Cc1ccccc1)NC(=O)[C@@H](NC(=O)CNC(=O)[C@@H](N)CCC(=O)O)[C@@H](C)O)[C@@H](C)CC)C(=O)N[C@@H](C)C(=O)N[C@@H](CCSC)C(=O)N[C@@H](CC(=O)O)C(=O)N[C@@H](CCCCN)C(=O)N[C@H](C(=O)N[C@@H](CCCCNC(=O)CCCCCCCCCCCCCCC(=O)O)C(=O)N[C@@H](CCC(N)=O)C(=O)N[C@@H](CCC(N)=O)C(=O)N[C@@H](CC(=O)O)C(=O)N[C@@H](Cc1ccccc1)C(=O)N[C@H](C(=O)N[C@@H](CC(N)=O)C(=O)N[C@@H](Cc1c[nH]c2ccccc12)C(=O)N[C@@H](CC(C)C)C(=O)N[C@@H](CC(C)C)C(=O)N[C@@H](C)C(=O)N[C@@H](CCC(N)=O)C(=O)N[C@@H](CCCCN)C(=O)N1CCC[C@H]1C(=O)N[C@@H](CO)C(=O)N[C@@H](CO)C(=O)NCC(=O)N[C@@H](C)C(=O)N1CCC[C@H]1C(=O)N1CCC[C@H]1C(=O)N1CCC[C@H]1C(=O)N[C@@H](CO)C(=O)O)C(C)C)[C@@H](C)CC
B6: AT549 (peptide)
peptide: EGTFISDYSIAMDKIHQK([AEEA-AEEA-γGlu-C18 diacid])DFVNWLLAQKGKKNDW-NH2
modifications: N-terminus assumed
SMILES: CC[C@H](C)[C@H](NC(=O)[C@H](CO)NC(=O)[C@H](Cc1ccc(O)cc1)NC(=O)[C@H](CC(=O)O)NC(=O)[C@H](CO)NC(=O)[C@@H](NC(=O)[C@H](Cc1ccccc1)NC(=O)[C@@H](NC(=O)CNC(=O)[C@@H](N)CCC(=O)O)[C@@H](C)O)[C@@H](C)CC)C(=O)N[C@@H](C)C(=O)N[C@@H](CCSC)C(=O)N[C@@H](CC(=O)O)C(=O)N[C@@H](CCCCN)C(=O)N[C@H](C(=O)N[C@@H](Cc1c[nH]cn1)C(=O)N[C@@H](CCC(N)=O)C(=O)N[C@@H](CCCCNC(=O)COCCOCCNC(=O)COCCOCCNC(=O)CC[C@H](NC(=O)CCCCCCCCCCCCCCCCC(=O)O)C(=O)O)C(=O)N[C@@H](CC(=O)O)C(=O)N[C@@H](Cc1ccccc1)C(=O)N[C@H](C(=O)N[C@@H](CC(N)=O)C(=O)N[C@@H](Cc1c[nH]c2ccccc12)C(=O)N[C@@H](CC(C)C)C(=O)N[C@@H](CC(C)C)C(=O)N[C@@H](C)C(=O)N[C@@H](CCC(N)=O)C(=O)N[C@@H](CCCCN)C(=O)NCC(=O)N[C@@H](CCCCN)C(=O)N[C@@H](CCCCN)C(=O)N[C@@H](CC(N)=O)C(=O)N[C@@H](CC(=O)O)C(=O)N[C@@H](Cc1c[nH]c2ccccc12)C(N)=O)C(C)C)[C@@H](C)CC
B7: AT545 (peptide)
peptide: EGTFISDYSIAMDKIK([AEEA-AEEA-γGlu-C18 diacid])QQDFVNWLLAQKGKKNDW-NH2
modifications: N-terminus assumed
SMILES: CC[C@H](C)[C@H](NC(=O)[C@H](CO)NC(=O)[C@H](Cc1ccc(O)cc1)NC(=O)[C@H](CC(=O)O)NC(=O)[C@H](CO)NC(=O)[C@@H](NC(=O)[C@H](Cc1ccccc1)NC(=O)[C@@H](NC(=O)CNC(=O)[C@@H](N)CCC(=O)O)[C@@H](C)O)[C@@H](C)CC)C(=O)N[C@@H](C)C(=O)N[C@@H](CCSC)C(=O)N[C@@H](CC(=O)O)C(=O)N[C@@H](CCCCN)C(=O)N[C@H](C(=O)N[C@@H](CCCCNC(=O)COCCOCCNC(=O)COCCOCCNC(=O)CC[C@H](NC(=O)CCCCCCCCCCCCCCCCC(=O)O)C(=O)O)C(=O)N[C@@H](CCC(N)=O)C(=O)N[C@@H](CCC(N)=O)C(=O)N[C@@H](CC(=O)O)C(=O)N[C@@H](Cc1ccccc1)C(=O)N[C@H](C(=O)N[C@@H](CC(N)=O)C(=O)N[C@@H](Cc1c[nH]c2ccccc12)C(=O)N[C@@H](CC(C)C)C(=O)N[C@@H](CC(C)C)C(=O)N[C@@H](C)C(=O)N[C@@H](CCC(N)=O)C(=O)N[C@@H](CCCCN)C(=O)NCC(=O)N[C@@H](CCCCN)C(=O)N[C@@H](CCCCN)C(=O)N[C@@H](CC(N)=O)C(=O)N[C@@H](CC(=O)O)C(=O)N[C@@H](Cc1c[nH]c2ccccc12)C(N)=O)C(C)C)[C@@H](C)CC
B8: AT546 (peptide)
peptide: EGTFISDYSIAMDKIK([AEEA-AEEA-γGlu-Stearoyl])QQDFVNWLLAQKGKKNDW-OH
modifications: N-terminus assumed
SMILES: CCCCCCCCCCCCCCCCCC(=O)N[C@@H](CCC(=O)NCCOCCOCC(=O)NCCOCCOCC(=O)NCCCC[C@H](NC(=O)[C@@H](NC(=O)[C@H](CCCCN)NC(=O)[C@H](CC(=O)O)NC(=O)[C@H](CCSC)NC(=O)[C@H](C)NC(=O)[C@@H](NC(=O)[C@H](CO)NC(=O)[C@H](Cc1ccc(O)cc1)NC(=O)[C@H](CC(=O)O)NC(=O)[C@H](CO)NC(=O)[C@@H](NC(=O)[C@H](Cc1ccccc1)NC(=O)[C@@H](NC(=O)CNC(=O)[C@@H](N)CCC(=O)O)[C@@H](C)O)[C@@H](C)CC)[C@@H](C)CC)[C@@H](C)CC)C(=O)N[C@@H](CCC(N)=O)C(=O)N[C@@H](CCC(N)=O)C(=O)N[C@@H](CC(=O)O)C(=O)N[C@@H](Cc1ccccc1)C(=O)N[C@H](C(=O)N[C@@H](CC(N)=O)C(=O)N[C@@H](Cc1c[nH]c2ccccc12)C(=O)N[C@@H](CC(C)C)C(=O)N[C@@H](CC(C)C)C(=O)N[C@@H](C)C(=O)N[C@@H](CCC(N)=O)C(=O)N[C@@H](CCCCN)C(=O)NCC(=O)N[C@@H](CCCCN)C(=O)N[C@@H](CCCCN)C(=O)N[C@@H](CC(N)=O)C(=O)N[C@@H](CC(=O)O)C(=O)N[C@@H](Cc1c[nH]c2ccccc12)C(=O)O)C(C)C)C(=O)O

Each binder was assayed against T1, human GIP receptor (assay: cell-based or functional assay).

Q: B1 was tested. Which “cAMP agonism % Emax” value did it give?
A: The value was 0%.

Q: What about the “cAMP antagonism” value of the same binder?
A: The value was 126 nM.

Q: What about the “cAMP antagonism % inhib” value of the same binder?
A: Its value is 86%.

Q: What about the “cAMP antagonism pIC50” value of the same binder?
A: The value was 6.9.

Q: With B2 as the binder, how does the “cAMP agonism % Emax” value read?
A: Its value is 0%.

Q: And the “cAMP antagonism” value?
A: The value was 11.2 nM.

Q: What about the “cAMP antagonism % inhib” value of the same binder?
A: Its value is 97%.

Q: What about the “cAMP antagonism pIC50” value of the same binder?
A: Its value is 8.

Q: B3 was tested. Which “cAMP antagonism” value did it give?
A: The value was 23.3 nM.

Q: What about the “cAMP antagonism % inhib” value of the same binder?
A: The value was 100%.

Q: And the “cAMP antagonism pIC50” value?
A: The value was 7.6.

Q: Which “cAMP agonism % Emax” value does the source give for B4 here?
A: The value was 0%.

Q: What about the “cAMP antagonism” value of the same binder?
A: Its value is 7.94 nM.

Q: And the “cAMP antagonism % inhib” value?
A: Its value is 100%.

Q: And the “cAMP antagonism pIC50” value?
A: The value was 8.1.

Q: With B5 as the binder, how does the “cAMP agonism % Emax” value read?
A: The value was 0%.

Q: B6 was tested. Which “cAMP agonism % Emax” value did it give?
A: Its value is 0%.

Q: What about the “cAMP antagonism” value of the same binder?
A: The value was 200 nM.

Q: And the “cAMP antagonism % inhib” value?
A: Its value is 80%.

Q: And the “cAMP antagonism pIC50” value?
A: Its value is 6.7.

Q: What does the source list for B7?
A: cAMP agonism % Emax: 0%; cAMP antagonism: 17.8 nM; cAMP antagonism % inhib: 77%; cAMP antagonism pIC50: 7.8

Q: Which “cAMP agonism % Emax” value does the source give for B8 here?
A: The value was 0%.

Q: What about the “cAMP antagonism” value of the same binder?
A: The value was 12.6 nM.

Q: And the “cAMP antagonism % inhib” value?
A: The value was 95%.

Q: And the “cAMP antagonism pIC50” value?
A: The value was 7.9.
